In publication PMC7230020 one finds fold decrease in apparent affinity for RecA* against LexA-S119A data, which are given here for two substances.

Where only a bound is given, the exact number is not on record here.

In the test the target is activated RecA (RecA*), E. coli RecA polymerised on ssDNA with ATPγS (E. coli) (UniProt P0A7G6). Description: fluorescence polarisation. (In fluorescence polarisation assays a small probe gives low polarisation when free and higher when bound to something large.)
Chain of activated RecA (RecA*), E. coli RecA polymerised on ssDNA with ATPγS (E. coli) (P0A7G6 whole entry): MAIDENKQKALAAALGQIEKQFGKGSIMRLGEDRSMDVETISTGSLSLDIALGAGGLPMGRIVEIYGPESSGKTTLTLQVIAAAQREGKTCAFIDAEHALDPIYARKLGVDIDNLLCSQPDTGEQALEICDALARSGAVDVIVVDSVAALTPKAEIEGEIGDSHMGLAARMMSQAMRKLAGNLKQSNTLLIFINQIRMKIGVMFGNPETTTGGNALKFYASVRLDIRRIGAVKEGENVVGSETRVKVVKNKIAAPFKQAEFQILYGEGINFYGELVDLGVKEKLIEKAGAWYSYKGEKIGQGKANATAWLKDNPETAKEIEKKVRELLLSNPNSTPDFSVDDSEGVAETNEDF

Consider “LexA G80P, full-length cleavage loop variant (from UniProt P0A7C2 1-202) (natural protein)”, for which the fold decrease in apparent affinity for RecA* against LexA-S119A is > 10 fold.
Under “LexA V82M, full-length cleavage loop variant (from UniProt P0A7C2 1-202) (natural protein)” stands > 10 fold.
